Source: article PMC12046042

Experiments:
Assay in all cases: SPR
FcγRIIa-131H = target: FcγRIIa-131H
FcγRIIIa-158V = target: FcγRIIIa-158V
FcγRIIb = target: FcγRIIb
FcγRIIIa-158F = target: FcγRIIIa-158F
FcγRIIa-131R = target: FcγRIIa-131R
[1] = target: FcγRI (CD64) extracellular domain (UniProt P12314)
FcγRI (CD64) extracellular domain, sequence (P12314 16-292): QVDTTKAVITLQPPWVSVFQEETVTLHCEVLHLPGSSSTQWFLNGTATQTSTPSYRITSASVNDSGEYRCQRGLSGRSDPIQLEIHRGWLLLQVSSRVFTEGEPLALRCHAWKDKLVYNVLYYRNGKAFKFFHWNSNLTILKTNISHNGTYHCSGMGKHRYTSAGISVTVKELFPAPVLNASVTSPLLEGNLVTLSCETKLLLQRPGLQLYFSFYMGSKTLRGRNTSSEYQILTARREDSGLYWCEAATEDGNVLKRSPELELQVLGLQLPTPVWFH

Substance | Kd (FcγRIIa-131H) [nM] | Kd (FcγRIIIa-158V) [nM] | Kd (FcγRIIb) [nM] | Kd (FcγRIIIa-158F) [nM] | Kd (FcγRIIa-131R) [nM] | Kd [1] [nM]
Hu IgG1 | 600 | 200 | 4400 | 1400 | 800 | 0.0643
Hu IgG4P | 4100 | 3100 | 1600 | 10000 | 1600 | 0.472
Hu IgG4PAA | > 10000 | 8900 | > 10000 | > 10000 | > 10000 | > 200
